Measured values published in PMC9080631.

T1: alpha-methylacyl-CoA racemase (AMACR) (UniProt Q9UHK6 1-382)
T1 sequence: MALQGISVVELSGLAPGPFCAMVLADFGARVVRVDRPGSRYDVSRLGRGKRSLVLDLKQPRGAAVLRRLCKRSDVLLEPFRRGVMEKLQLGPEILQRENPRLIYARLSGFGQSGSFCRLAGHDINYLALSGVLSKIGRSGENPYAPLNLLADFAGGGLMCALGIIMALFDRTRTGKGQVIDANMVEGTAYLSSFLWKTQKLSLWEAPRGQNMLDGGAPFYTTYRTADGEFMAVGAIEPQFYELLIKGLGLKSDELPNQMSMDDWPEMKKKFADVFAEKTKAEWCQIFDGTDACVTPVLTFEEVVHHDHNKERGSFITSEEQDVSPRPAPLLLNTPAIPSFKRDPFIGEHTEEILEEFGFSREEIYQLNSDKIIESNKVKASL


Target: T1, alpha-methylacyl-CoA racemase (AMACR)
Assay: ELAA

Binder | Kd [nM]
DC14 (dimeric truncated C14) (ssDNA) DNA: AACCAAATATCTACGCATCATTTTTCCTTTAACCAAATATCTACGCATCATTTTTCCTTT | 66.6 ± 17
ACTTTTATCTCTCCTAACCTGTCCTGGGGT (ssDNA) [truncated C20 (N30)] | 206 ± 36.4
CTTTATGTGTCGGGATCAGATACACATCCG (ssDNA) [truncated A38 (N30)] | 813 ± 405
TGAACTACTTAGTTTTATCCACTTATCCTG (ssDNA) [truncated A24 (N30)] | 477 ± 170
AAAAATTTTTCCTTGTATGTCATTCTCTCA (ssDNA) [truncated B38 (N30)] | 173 ± 91.8
GTCGAACCGTAGGGGCTATCTGTTGTGGGC (ssDNA) [truncated B4 (N30)] | 869 ± 215
AACCAAATATCTACGCATCATTTTTCCTTT (ssDNA) [truncated C14 (N30)] | 150 ± 55.8
